Reference: the DeepSol protein solubility set

Assay: soluble on expression in E. coli; label from the status in PepcDB or PDB records

Row | Sequence | soluble on expression in E. coli
1 | MASTRPDNVLVWMASRGSYVESMPGTILRIKNASKFGENLYGFKDQPGELVEVTWDAMFKLRPTLVEVDFGRNPCDELVKVIEKNYNNEQISHFFEKVKALSLHMTDITSESLLKLMDKFTLLAAFSFSETKFSTPEWATILKRLSELNLRGIDLSDNILSEVQQHIDVSLMKLSGNPGVDVNEFKKGIEFVTVKVLAVQELKFLGETDAEQLLEVLPQSFPRLETLIWDWNVVDPELNFDERTKKVLDQLLFVNKQLNLGSLAVVAYTPNPETKTAIESVARTLKGSIKDVQLHQFATKGLSDGMANFSLIVAGNNEKAMKELMDMYMVDRSTMPPMGKLLRLCEEDIVPIYPAITMDFGGFNKNRIRQLYTESPTD | not soluble
2 | MASWSHPQFEKGASTSLYKKAGRMSKFTWKELIQLGSPSKAYESSLACIAHIDMNAFFAQVEQMRCGLSKEDPVVCVQWNSIIAVSYAARKYGISRMDTIQEALKKCSNLIPIHTAVFKKGEDFWQYHDGCGSWVQDPAKQISVEDHKVSLEPYRRESRKALKIFKSACDLVERASIDEVFLDLGRICFNMLMFDNEYELTGDLKLKDALSNIREAFIGGNYDINSHLPLIPEKIKSLKFEGDVFNPEGRDLITDWDDVILALGSQVCKGIRDSIKDILGYTTSCGLSSTKNVCKLASNYKKPDAQTIVKNDCLLDFLDCGKFEITSFWTLGGVLGKELIDVLDLPHENSIKHIRETWPDNAGQLKEFLDAKVKQSDYDRSTSNIDPLKTADLAEKLFKLSRGRYGLPLSSRPVVKSMMSNKNLRGKSCNSIVDCISWLEVFCAELTSRIQDLEQEYNKIVIPRTVSISLKTKSYEVYRKSGPVAYKGINFQSHELLKVGIKFVTDLDIKGKNKSYYPLTKLSMTITNFDIIDLQKTVVDMFGNQVHTFKSSAG | soluble
3 | MATAFTHSGKFHADDVFSAALLLYLNPEITITRGNRVPEDFDGIVFDIGRGRYDHHQKDSRVRENGIAYAAFGLLWEELGSEILGEELAQKFDEAFVQPLDNNDNTGEKNELASLIGNFNPTWDAEGSNDEAFFQAVSVAGMILENKFDRYRGNERADKRVEEIYERHMQAFHDREKHSEDAKILILPEFVPCQKFLSETPVAFVIFPSNRGGYCIQPQKKEYSMNYKCSFPSEWLGLENEELQEVTGLKTAGFCHKGGFLMTTGELADAVQACKISMEQFREKPVIVSFGGDTEYDELLHQIPKLQAAEIIHIDIQPLPEVEIQGIYAEVSMEKQEWKARIKEQVKQILKYKPEAVFVGENLFVAYPIVHALRKKHIPVLVPAEKDGQKLLIRIPSGSLEHHHHHH | soluble
4 | MATAVELALLKQPYFDLNALCKTVFVTYKAGPGLKKIVTVQAQYVDICNKPNVRGTVVSLPGSPGSHNDIKYMRDSFEKHNIRLICVNWPGSEFVTGGMNDTYTNAERNSYAKALMEKLELKKVEKLILLGHSRGGESALQLACTLSDDRSWPLIGAVMLNSPGFVVHRGISIRMGTINTVSFLVKLRWKIVDCILFPVLDWFYNDFVGLRVSDGKVCAAAMLPMQTFAFEEQRASIDEMKKKPWIRMFYAYGSKDFLVDESDSEELAMHFGGDHYIIHSKKESEETIPKIWNSYERGQSYVTANFTEEGHYLHKTYPEFLIQIFGGIFDVKTEKS | not soluble
5 | MATCLVEFAKSPPVFSPGEKVTGNVKMTIPDDEFKARKVRMEMIGKAYTYWEGNVRNNHTKIKNGDIARVRHNCADHKGKIVYCRFETIVWKSDGAKNDMPSGPHIFPFSFQLPHWAPPSFEGDLGFIRYFIKVEIDRPWKFDDKFITCLTVLPNIDLRLIPNSQVPSKKHVCEEFGAVLWKNGLVRMELRLPKQGFVCGENIPVTMIVDNKTSKSFKKISLRLVQRVTYTGFRDGFVNSHSQPCIGNEKEKITYATRLNAQTRVEERQISETNIDIKIDKNEKQEVEKPIPLPPLPPSTKTCEIIDVEYFLKVKMSTSGALKSAVKLELAFIIGTMPIDPERKYEYKKSVFGFAATSLKNRDVQKFAPLYPVFKFDE | not soluble
6 | MATIRDVAKRAGVSVATVSRVLNQNGYVNEETERRVRQAMKELNYKPNEVARALFKKTSKTVGLIVPDITNPFFPELVRAVEDVMNIYDYTVILCNSDEKVEKEREYIEVLKQKYVDGVILTTNQFAPEEVEEWDVPIVVLDRPLHERYPSVVADNYEGARLATRHLYEVGCRRIAHIQGPNHVVNAMERFRGYQDEMRALGLGDRQLVIQGNYQLKQAKEAVMAALAEHDMDGIFAGNDAMAVGALKAVQQCGLRVPDDIAIIGYDGIPLTEMTTPELSTVSQPIYEMGAMAARILIKQIEGKPLEKLHYQLPVQLVVRQSTSRRGLT | soluble
7 | MATIRKADYYYGALLSALVNGGLAPALFEKENDNRQIYEVTTNKASYIMYTKYNTNPSGSKDFTWSFVFSDHEIAEINKIYLEHSKEKEIMFAFVCAQKQPSDSNQVIAIVRWNEFLECVDLQRQQVRGTPRLSIKAVKGSPKLRLYGSKRADVLDGKDHTIKIERNRLNSL | not soluble
8 | MATKHDQILKHIEDLPIGDRISVRSIAKSLSVSEGTAYRAIKDAENIGLVSTIQRVGTIRIERKLKKHIEKLTFGEVVRIIEGDVLGGSSGLDKVLNKFVIGAMTETAMTRYITPGSLMIVGNRQGVQKLALENGAAVLITGGFETSEEIAQLADRLGMPVLRTTYDTFTVATMINRALSDQLIKKDILLVSDIYTALEKTNYLLTTQTIADYQALSESTHHSRFPVVNKKLRLVGIVTAKDVIGKSEHLTVDKVMTKDPNVVKKMMSVASVSHQMIWDGLEVMPVVEDDLALVGIVSRQDVMKAMQLVQRQPQIADTISDQISGEVMPVEENGKETTRFRFSVAPQMVNSVGTISFGVLSEIISNVTQRTMLMNQKRNVLIEQVNLHYLRLIQLESELDIRPRILEIGRRSAKLDIEVYLENVIVAKAIVVCQVMERT | not soluble
9 | MATLFIADLHLQTEEPAITAGFLRFLQGEARQADALYILGDLFEAWIGDDDPNPLHQQIASAIKAVVDAGVPCYFIHGNRDFLVGQRFARQSGMILLAEEERLDLYGREVLIMHGDTLCTDDQGYLAFRAKVHTPWIQRLFLALPLFIRHRIAARMRADSKAANSSKSMEIMDVNPQAVVDAMERHHVQWLIHGHTHRPAVHELQANGQPAWRVVLGAWHSEGSMVKVTPDDVELIHFPF | not soluble
10 | MATPALLPGVDLAAFAAALAARLRDAGIPVSASGQASLVQALQQLVPRTPAALYWGARLTLVSRVDELATFDAVFASLFGVFGSAEPDGANRPPPPIAGPRTPVAGVGHRAKRRSCAAQAQNLPWDTRSLTMASAGQGGPSRTLPDVLPSRIVARADEPFDQFDPDDLRLLGAWLEATMARWPRRRSMRFESSPHGKRIDLRATMNASRSTGWESVLLARIRPRRRPRRVLLLCDVSRSMQPYAAIYLRLMRAAVLRRAGGHPEVFAFSTSLTRLTSVLSHRSAEMALHRANARVTDRYGGTFIGRSVAALLAPPHGNALRGAVVIIASDGWDSDPPDVLVHALTRVRRRAELLVWLNPRAAHPEFQPRAGSMAAALPYCDLFLPAHSLAGLHQLLLALAGAR | soluble
11 | MATQINQKFGSKYKSNRKDETPMFEVRNGKSVIKNSGNHEATVNRTLDFHMTKLFQWEEQSDAIESSYVCALCHENGEKRELFGPYYATHNPIKYWPSFLAKKPTAKKPTKIELWFHGSCVLWAPNVHLHGNQLTNLDNQIDIFWSQTCIVCRKTGAAISVQNKKNTFIHYPCAKNKGYKLDEHALLCNS | soluble
12 | MATQQPALVLDPTGADHHTEHRTLREGGPATWVDVLGVQAWSVSDPVLLKQLLTSSDVSKDARAHWPAFGEVVGTWPLALWVAVENMFTAYGPNHRKLRRLVAPAFSARRVDAMRPAVEAMVTGLVDRLAELPAGEPVDLRQELAYPLPIAVIGHLMGVPQDRRDGFRALVDGVFDTTLDQAEAQANTARLYEVLDQLIAAKRATPGDDMTSLLIAARDDEGDGDRLSPEELRDTLLLMISAGYETTVNVIDQAVHTLLTRPDQLALVRKGEVTWADVVEETLRHEPAVKHLPLRYAVTDIALPDGRTIARGEPILASYAAANRHPDWHEDADTFDATRTVKEHLAFGHGVHFCLGAPLARMEVTLALESLFGRFPDLRLADPAEELPPVPSLISNGHQRLPVLLHAG | soluble
13 | MATTQQSSTKQDILEYLLKEVQATSLELAEVLEVSPQAIRRHLKDLETDNLVVYFVPEQVGMGRPQHLYQLSQRGREQLQRNVNRLSDGYGDFAVSLLDTLAATVGREQVKTILQKQWERKAQEYRERVGTGSLQERVANLVELRKAEGFMAEFYPVESDSAHSERFIFMEHTCAISNVAESFPSICGHELEMFAAILPDCTVKRTHWLIDGEHRCGYLVQRSSGVTGVTEVEN | not soluble
